Data as given in US20210343368A1, “Method for Engineering Synthetic Cis-Regulatory DNA” (Max-Delbrück-Centrum für Molekulare Medizin in der …, priority 2018, published 2021).

Key:
A549 cells [1] = assay: FACS profile of MGT #1 expression and cell morphology; type: cell-based, human
Method: FACS analysis: Analysis was performed with FlowJo_V10.

A549-MGT #1low cells = assay: Cytokine screening, microplate reader MGT #1 fluorescence; type: cell-based, human; settings: cytokine combined with GSK126
Method: Phenotypic screening: Tumor cells were propagated as described above until the screening. Then we seeded 15′000/50 μl/well in 384 well plates (Corning), in Gibco FluoroBrite DMEM medium supplemented with the appropriate growth factors. Cells were dispensed as 50 μl suspension into each well using the SPARK20M Injector system (50 μl injection volume; 100 μl/s injection speed). For non-adherent cells (e.g. GICs), cells were further centrifuge at 1500 rpm for 1 h30 min at 37° C. Bottom reading fluorescence was scanned using a SPARM 20M TECAN plate reader at 37° C. in a 5% CO2-95% air (3% for GICs) in a humidified cassette, with the following settings for mVenus: Monochromator, Ex 505 nm±20 nm, Em 535 nm±7.5 nm, manual gain:198, flashes: 35, Integration time:40 μs. In independent replicas, cell viability was measured with 0.02% AlamarBlue solution in FluoroBrite medium with the following settings: Fluorescence Top reading. Monochromator, Ex 565 nm±10 nm, Em 592 nm±10 nm, manual gain: 88, flashes: 30, Integration time:40 μs.
DMSO-soluble compounds such as GSK126, were robotically aliquoted using a D300e, whereas cytokines were robotically aliquoted to each well using an Andrew pipetting robot (AndrewAlliance), using the following concentrations:
To exploit Ezh2 inhibition and MGT #1 as a framework to clarify the signaling basis of EMT in NSCLC cells, we next performed a cytokine screening in GSK126- and vehicle-treated A549-MGT #1^low cells.

A549 cells [2] = assay: IncuCyte longitudinal MGT #1 fluorescence; type: cell-based, human; settings: GSK126 together with TGFB signaling
Method: IncuCyte: IncuCyte automated longitudinal imaging was performed in 96 wells black walls plates (Greiner). 300,000 cells per plate were seeded to reach optimal confluence at the end of the experiment. GSK126 was aliquoted using a D300e, whereas TGFB1+2 were manually aliquoted to each well. Both were refreshed every second day. The last timepoint was independently verified using a plate reader (BMC Clariostar).
Ezh2 inhibition can support Kras-driven EMT in several mouse and human lung cancer cells^41. In this setting, we tested the use of sLCRs in reflecting cellular and molecular responses to biological and chemical stimuli.

MDA-231 cells = assay: FACS of MGT #1 expression in breast cancer cells; type: cell-based; settings: short-term treatment
Method: (§1) The MCF7, MDA-231, A549 and H1944, cell lines (kindly provided by the Rene Bernards lab, NKI) were cultured in RPMI medium. All cell lines were supplemented with 10% FBS, and 5% penicillin and streptomycin at 37° C. in a 5% CO2-95% air incubator.
(§2) Tumor subtypes are genetically engraved in breast cancer cells^40. […] To confirm that MGT #1 expression reflects that actual breast cancer subtype identity, we FACS sorted and sub-cloned the top MCF7-MGT #1 and the mid MDA-231-MGT #1 expressing cells. Nevertheless, further propagation of the FACS-sorted populations reestablished pre-sorting homeostasis, with MCF7 expressing lower levels of MGT #1 than MDA-231.

MCF7 cells = assay: FACS of MGT #1 expression in breast cancer cells; type: cell-based
Method: as §1, §2

T98G cell line = assay: sLCR-mCherry reporter expression and reprogramming in a glioma cell line; type: cell-based; settings: transient over-expression of SALL3, SOX2 and POU3F2
Method: The T98G and U87MG (kindly provided by the van Tellingen lab, NKI) were propagated in EMEM medium. For the experiments in FIG. 13a, T98G were switched to RHB-A supplemented with EGF (20 ng ml-1), bFGF (20 ng ml-1), heparin (1 μg ml-1) and 5% penicillin and streptomycin and propagated first on standard tissue culture-treated plastic, then in ultra-low binding plastic (CORNING).
The Proneural GBM is thought to represent the common GBM ancestor subtype and also to reflect an oligodendrocytic cell-of-origin^26′^37. […] To test whether a PN sLCR would mirror the Proneural state, we decided to induce reprogramming of a FBS-driven conventional cell line into a PN-GICs using the master TFs underlying the PN identity^38. To this end, we transduced either MGT #1 or PNGT #2 into the T98G cell line, which is characterized by TP53 mutations (https://portals.broadinstitute.org/ccle), which are more likely to be associated with a PN phenotype^16. […] Of note, these set of experiments were conducted with a mCherry fluorescent protein carrying a nuclear localization signaling, thereby excluding that the fluorescent protein intensity (mCherry is brighter than mVenus), localization and stability (mVenus is transmembrane and stabilized) play a major role in the observed phenotypic transitions.

[3] = test system: MES-hGICs-MGT #1dim xenografts; assay: Orthotopic glioma xenograft, genetic tracing of MGT #1; type: in vivo, NSG mice
Method: Tissue dissection and Cell surface staining: Brain tumor dissection was previously described in detail^77. Briefly, the tissue was dissected with a scalpel, digested in Accutase/DNasel (947 μl Accutase, 50 μl DNase I Buffer, 3 μl DNase I) at 37° C. until needed. Filtered through a 120 μm cell strainer first and a 40 μm cell strainer before RBC lysis (NH4Cl, 155 mM; KHCO3, 10 mM; EDTA, pH 7.4, 0.1 mM). After washing in cold PBS, viability and cell count were assessed automatically with 0.4% Trypan Blue staining using a TECAN SPARK20M.
When surface markers were assessed, typically, 200.000 cells/antibody were used in 15 ml Falcons. Staining volume was 50 μl in RHB-A medium with primary antibody (e.g. CD133-APC; Miltenyi), on ice, in the dark, for 30′. […] Depending on whether cells were analyzed or sorted, data acquisition was performed on the BD LSRFortessa or cells were sorted using the BD Aria II or a Astrios Moflo. The appropriate laser-filter combinations were chosen depending on the fluorophores being analyzed. Typically, to remove dead cells, events were first gated on the basis of shape and granularity (FSC-SSC), and we used as viability dyes either AnnexinV or LIVE/DEAD Fixable Aqua Dead Cell Stain Kit (depending on the fluorophores being analyzed). […]
We intracranially transplanted MES-hGICs-MGT #1^dim cells into NSG mice and longitudinally monitored tumor formation. […]

MES-hGICs and PN-hGICs = assay: FACS of basal sLCR expression in hGICs; type: cell-based, human; settings: growth-factor defined conditions in vitro
Method: FACS sorting: Transduced hGICs were harvested into single cell suspensions and resuspended into cold RHB-A complete and filtered into FACS tubes. Sorting was conducted using BD FACSAria III or Fusion. The appropriate laser-filter combinations were chosen depending on the fluorophores being sorted for. Typically, to remove dead cells, events were first gated on the basis of shape and granularity (FSC-A vs. SSC-A) and doublets were excluded (FSC-A vs. FSC-H). Positive gates were established on PGK-driven and constitutively expressed H2B-CFP as sorting reporter, to sort for populations with low to medium intensity of sLCR-dependent fluorophore expression.
Next, we transduced Proneural (PNGT #1-2) and Mesenchymal (MGT #1-2) sLCRs lentiviral particles into spontaneously immortalized human neural progenitor cells that acquired high copy number of PDGFRA, c-Myc and CDK4. To recapitulate the common PN and MES GBM genetic backgrounds, we further engineered hGICs to be depleted of PTEN and either bear IDH1^R132 and TP53^R273H point mutations or be further depleted of TP53 and NF1, thereby generating PN-hGICs and MES-hGICs, respectively. These cells show DNA methylation profiles similar to GBM patients and acquire subtype-specific gene-expression in vivo and therefore represent two distinct GBM subtypes.

Molecule: CC[C@H](C)n1cc(C)c2c(C(=O)NCc3c(C)cc(C)[nH]c3=O)cc(-c3ccc(N4CCNCC4)nc3)cc21 [GSK126]
- MGT #1 activation by flow cytometry (A549 cells [1]; combination of TGFB signaling and GSK126): synergistically induce MGT #1 activation
- cell morphology change (A549 cells [1]; single treatment): did not induce a cellular morphology changes
- MGT #1 expression by flow cytometry (A549 cells [1]; single treatment, early time point): induces molecular transitions to a similar extent
- MGT #1 expression, fluorescence output (A549-MGT #1low cells): modest additive effect
- MGT #1 fluorescence, longitudinal measurement (A549 cells [2]): cooperatively induced

B1: TGFB2: EMT inducer (protein, UniProt P61812 303-414, looked up)
Transforming growth factor …: ALDAAYCFRNVQDNCCLRPLYIDFKRDLGWKWIHEPKGYNANFCAGACPYLWSSDTQHSRVLSLYNTINPEASASPCCVSQDLEPLTILYYIGKTPKIEQLSNMIVKSCKCS
- change of basal MGT #1 fluorescence (MDA-231 cells): did not strongly modify the basal MGT #1 fluorescence
- change of basal MGT #1 fluorescence (MCF7 cells; short-term treatment): did not strongly modify the basal MGT #1 fluorescence

B2: MGT #1: subtype-specific sLCR for mesenchymal glioblastoma (MES-GBM) (nucleic acid)
chain: ATATTTATTTTTAGGACCAGAAAGTTAAAGTGAATTGGATTTGATCCATTTTCTGAAAGGCTGGCAAGAATTCTTGACATTGCACAGGAATTTCCATGTCAGCATGTTCTCACATGTATGATCTAATTTAGAGATTATTTTGGGGGGCGGGGGTTGAGGAAATGGCATGACTCAGAGTTTAAAAGCCCCAAATCTTAGCTGTGCCTGTGTAGCTTTACCACATAACCCATTGATAACTTAGTTGTGCAACCATCACCACCATCTGTTTTCAGAACTCTTTTCATTTTGCGAAACTGAAACCCGTTAAGCACTGATTTCCCACTCTCCCTCCTCCCAGCCCATAGCAAACCACCATCCCACCAGCACTTTCATTTCGCAAATGGCAAAACTGAAGCCGATATTGTGGTTGTGACTTATCCCAAAGTAATATACACATAAACCTCTATGGATGAGGAAAAAGACAGAGGGAAACTAAAAATTCAAAAGAACAAATTTGACTCACAGATTTGCTGACTCATAGTTGTGACACTTCCTGGCTCAGGAAGTTGAATTTCATTAAGCCTTTGTGGTTTGGGGCTCTGCTGTGCTTTGACAGCTCTGATCTCCTCCCTTCCGGCTGGGCTGTCTGGGGCGCTCTAAAATGAGTGTTGATTTAATGCACTGCCTTCGCACCCGTGCTGGTGCGTCCCGGGGACAGGGGTGGCTGTGCGGTGCCGCGGCGGCCGGCGGGGCTCCTTCCCCAGCAGGGGTGGGGACGCTGAGTCACGGATCTGTCACCGCTTTGCACCTCTCCGAGCCCTCGGGGGCCAAAGCAAAAGCGAAAGCGA
modifications: sLCR
- basal MGT #1 expression (MCF7 cells; after lentiviral transduction): lower MGT #1 expression compared to MDA-231 cells
- sLCR reporter expression upon master TFs (T98G cell line): neutral to MGT #1 expression
- distribution of MGT #1 expressing cells in the tumor (immunohistochemical staining) ([3]; intracranial transplant, n=10, humane end point): well confined within the invasive front
- endogenous mVenus fluorescence by flow cytometry, in vivo vs in vitro ([3]; xenograft-derived tumor cells): vast majority of the tumor cells switched to a MGT #1^low or dark state
- basal sLCR expression (MES-hGICs and PN-hGICs): higher basal expression in MES-hGICs compared to PN-hGICs
